Results from patent US10865390B2, “Alcohol dehydrogenase mutant and application thereof in synthesis of diaryl chiral alcohols” (Jiangnan University, priority 2018, dated 2020).

Assays:
Assay type in all cases: biochemical
[1] = Stereoselectivity analysis of CPMK reduction (chiral liquid chromatography, Table 1); details: product CPMA from CPMK
Description: (§1) In an embodiment of the present disclosure, the (R)- and (S)-CPMA is chromatographed by taking 100 μL reaction solution, adding 500 μL ethyl acetate, shaking for 1-2 min, centrifuging at 12,000 rpm for 2-5 min, placing a supernatant into a centrifuge tube, and after an organic phase is naturally volatilized completely, adding 500 μL chromatographic pure ethanol for chiral liquid chromatography of a conversion rate and an ee value. The specific chromatographic conditions are as follows: Daicel Chiralcel OB-H (5 μm, 250 mm×4.6 mm) liquid chromatography column, mobile phases are n-hexane: ethanol: ethanolamine (90:10:0.01, v/v/v), the flow rate is 1 mL/min, the column temperature is 30° C., the UV detection wavelength is 254 nm, the injection volume is 10 μL, and the retention time for (R)-CPMA and that for (S)-CPMA are 11.14 min and 12.34 min respectively.
Method for determining optical purity ee:
As: molar concentration of (S)-CPMA obtained by liquid chromatography; and AR: molar concentration of (R)-CPMA obtained by liquid chromatography.
The activity of KpADH at different substrate concentrations and coenzyme concentrations was determined, and a double reciprocal curve was made based on the reciprocal of activity and substrate concentration to calculate kinetic parameters.

[2] = Substrate specificity: reduction of prochiral carbonyl compound (Table 2)
Description: The reduction on prochiral carbonyl compounds by the alcohol dehydrogenase mutants obtained in Example 2 was studied, and the studied prochiral carbonyl compounds include (4-chlorophenyl)-(pyridin-2-yl)-methanone (CPMK), phenyl-(pyridin-2-yl)-methanone, (4-chlorophenyl)-(phenyl)-methanone, (4-bromophenyl)-(phenyl)-methanone, (4-fluorophenyl)-(pyridin-2-yl)-methanone, (4-methoxyphenyl)-(phenyl)-methanone, acetophenone, 4-chloroacetophenone and 2-(4-chlorophenyl)acetyl chloride.

[3] = 20 mL biocatalytic system: asymmetric reduction of CPMK
Description: as §1
A 20 mL biocatalytic system was established: 100 mM potassium phosphate buffer (pH 7.0), and the alcohol dehydrogenase mutants M6 and M7 obtained in Example 2 as well as wild KpADH 10 g/L, CPMK 100 mM, 200 mM and 500 mM were added (substrate added in batches). […]

B1: M2: alcohol dehydrogenase mutant: valine for glutamic acid at position 214 (E214V) of SEQ ID No. 2 (protein)
chain: MSVLISGASGYIAKHIVRVLLEQNYKVIGTVRSQDKADKLLKQYNNPNLSYEIVPEIANLDAFDDIFKKHGKEIKYVIHAASPVNFGAKDLEKDLVIPAINGTKNMFEAIKKYAPDTVERVVMTASYASIMTPHRQNDPTLTLDEETWNPVTEENAYENVFTAYCASKTFAEKEAWKFVKENSDAVKFKLTTIHPSFVFGPQNFDEDVTKKLNVTCEIINGLLHAPFDTKVEKTHFSQFIDVRDVAKTHVLGFQKDELINQRLLLCNGAFSQQDIVNVFNEDFPELKGQFPPEDKDTDLNKGVTGCKIDNEKTKKLLAFEFTPFHKTIHDTVYQILHKEGRV
modifications: Protein translated from synthetic DNA
[1]
  ee: 92.3%
[2]; substrate drawing 1 (CPMK)
  ee value of product: 92.3%
[2]; substrate drawing 2
  ee value of product: 30.6%
[2]; substrate drawing 3
  ee value of product: 87.9%
[2]; substrate drawing 4
  ee value of product: 95.5%
[2]; substrate drawing 5
  ee value of product: 0.56%
[2]; substrate drawing 6
  ee value of product: 23.2%
[2]; substrate drawing 7
  ee value of product: 45.3%
[2]; substrate drawing 8
  ee value of product: 94.9%
[2]; substrate drawing 9
  ee value of product: 91.2%

B2: M5: alcohol dehydrogenase mutant E214G, S237C, Q136N, S196G of SEQ ID No. 2 (protein)
chain: MSVLISGASGYIAKHIVRVLLEQNYKVIGTVRSQDKADKLLKQYNNPNLSYEIVPEIANLDAFDDIFKKHGKEIKYVIHAASPVNFGAKDLEKDLVIPAINGTKNMFEAIKKYAPDTVERVVMTASYASIMTPHRNNDPTLTLDEETWNPVTEENAYENVFTAYCASKTFAEKEAWKFVKENSDAVKFKLTTIHPGFVFGPQNFDEDVTKKLNGTCEIINGLLHAPFDTKVEKTHFCQFIDVRDVAKTHVLGFQKDELINQRLLLCNGAFSQQDIVNVFNEDFPELKGQFPPEDKDTDLNKGVTGCKIDNEKTKKLLAFEFTPFHKTIHDTVYQILHKEGRV
modifications: Protein translated from synthetic DNA
[1]
  ee: 93.5%
[2]; substrate drawing 1 (CPMK)
  ee value of product: 87.7%
[2]; substrate drawing 2
  ee value of product: 15.5%
[2]; substrate drawing 3
  ee value of product: 62.0%
[2]; substrate drawing 4
  ee value of product: 70.9%
[2]; substrate drawing 5
  ee value of product: 59.5%
[2]; substrate drawing 6
  ee value of product: 81.7%
[2]; substrate drawing 7
  ee value of product: 95.6%
[2]; substrate drawing 8
  ee value of product: 49.1%
[2]; substrate drawing 9
  ee value of product: 99.9%

B3: M1: alcohol dehydrogenase mutant: glycine for glutamic acid at position 214 (E214G) of SEQ ID No. 2 (protein)
chain: MSVLISGASGYIAKHIVRVLLEQNYKVIGTVRSQDKADKLLKQYNNPNLSYEIVPEIANLDAFDDIFKKHGKEIKYVIHAASPVNFGAKDLEKDLVIPAINGTKNMFEAIKKYAPDTVERVVMTASYASIMTPHRQNDPTLTLDEETWNPVTEENAYENVFTAYCASKTFAEKEAWKFVKENSDAVKFKLTTIHPSFVFGPQNFDEDVTKKLNGTCEIINGLLHAPFDTKVEKTHFSQFIDVRDVAKTHVLGFQKDELINQRLLLCNGAFSQQDIVNVFNEDFPELKGQFPPEDKDTDLNKGVTGCKIDNEKTKKLLAFEFTPFHKTIHDTVYQILHKEGRV
modifications: Protein translated from synthetic DNA
[1]
  ee: 3.29%
[2]; substrate drawing 1 (CPMK)
  ee value of product: 24.2%
[2]; substrate drawing 2
  ee value of product: 41.0%
[2]; substrate drawing 3
  ee value of product: 63.2%
[2]; substrate drawing 4
  ee value of product: 49.3%
[2]; substrate drawing 5
  ee value of product: 7.51%
[2]; substrate drawing 6
  ee value of product: 42.7%
[2]; substrate drawing 7
  ee value of product: 68.5%
[2]; substrate drawing 8
  ee value of product: 86.3%
[2]; substrate drawing 9
  ee value of product: 94.5%

B4: M3: alcohol dehydrogenase mutant E214G, S237C of SEQ ID No. 2 (protein)
chain: MSVLISGASGYIAKHIVRVLLEQNYKVIGTVRSQDKADKLLKQYNNPNLSYEIVPEIANLDAFDDIFKKHGKEIKYVIHAASPVNFGAKDLEKDLVIPAINGTKNMFEAIKKYAPDTVERVVMTASYASIMTPHRQNDPTLTLDEETWNPVTEENAYENVFTAYCASKTFAEKEAWKFVKENSDAVKFKLTTIHPSFVFGPQNFDEDVTKKLNGTCEIINGLLHAPFDTKVEKTHFCQFIDVRDVAKTHVLGFQKDELINQRLLLCNGAFSQQDIVNVFNEDFPELKGQFPPEDKDTDLNKGVTGCKIDNEKTKKLLAFEFTPFHKTIHDTVYQILHKEGRV
modifications: Protein translated from synthetic DNA
[1]
  ee: 51.8%
[2]; substrate drawing 1 (CPMK)
  ee value of product: 65.4%
[2]; substrate drawing 2
  ee value of product: 36.5%
[2]; substrate drawing 3
  ee value of product: 33.2%
[2]; substrate drawing 4
  ee value of product: 63.3%
[2]; substrate drawing 5
  ee value of product: 45.6%
[2]; substrate drawing 6
  ee value of product: 80.6%
[2]; substrate drawing 7
  ee value of product: 95.3%
[2]; substrate drawing 8
  ee value of product: 88.9%
[2]; substrate drawing 9
  ee value of product: 99.8%

B5: M4: alcohol dehydrogenase mutant E214G, S237C, Q136N of SEQ ID No. 2 (protein)
chain: MSVLISGASGYIAKHIVRVLLEQNYKVIGTVRSQDKADKLLKQYNNPNLSYEIVPEIANLDAFDDIFKKHGKEIKYVIHAASPVNFGAKDLEKDLVIPAINGTKNMFEAIKKYAPDTVERVVMTASYASIMTPHRNNDPTLTLDEETWNPVTEENAYENVFTAYCASKTFAEKEAWKFVKENSDAVKFKLTTIHPSFVFGPQNFDEDVTKKLNGTCEIINGLLHAPFDTKVEKTHFCQFIDVRDVAKTHVLGFQKDELINQRLLLCNGAFSQQDIVNVFNEDFPELKGQFPPEDKDTDLNKGVTGCKIDNEKTKKLLAFEFTPFHKTIHDTVYQILHKEGRV
modifications: Protein translated from synthetic DNA
[1]
  ee: 88.0%
[2]; substrate drawing 1 (CPMK)
  ee value of product: 80.6%
[2]; substrate drawing 2
  ee value of product: 20.7%
[2]; substrate drawing 3
  ee value of product: 38.6%
[2]; substrate drawing 4
  ee value of product: 66.5%
[2]; substrate drawing 5
  ee value of product: 49.1%
[2]; substrate drawing 6
  ee value of product: 82.6%
[2]; substrate drawing 7
  ee value of product: 91.5%
[2]; substrate drawing 8
  ee value of product: 57.7%
[2]; substrate drawing 9
  ee value of product: 99.3%

B6: M7: alcohol dehydrogenase mutant E214V, T215S of SEQ ID No. 2 (protein)
chain: MSVLISGASGYIAKHIVRVLLEQNYKVIGTVRSQDKADKLLKQYNNPNLSYEIVPEIANLDAFDDIFKKHGKEIKYVIHAASPVNFGAKDLEKDLVIPAINGTKNMFEAIKKYAPDTVERVVMTASYASIMTPHRQNDPTLTLDEETWNPVTEENAYENVFTAYCASKTFAEKEAWKFVKENSDAVKFKLTTIHPSFVFGPQNFDEDVTKKLNVSCEIINGLLHAPFDTKVEKTHFSQFIDVRDVAKTHVLGFQKDELINQRLLLCNGAFSQQDIVNVFNEDFPELKGQFPPEDKDTDLNKGVTGCKIDNEKTKKLLAFEFTPFHKTIHDTVYQILHKEGRV
modifications: Protein translated from synthetic DNA
[3]; 20 mL biocatalytic system, enzyme 10 g/L, 30° C., pH 7.5
  ee value of final reduction product: 99.7%
[3]; CPMK 100 mM, reaction time 1 h
  Conversion rate: 34.0%
[3]; CPMK 100 mM, reaction time 2 h
  Conversion rate: 40.8%
[3]; CPMK 100 mM, reaction time 3 h
  Conversion rate: 41.5%
[3]; CPMK 100 mM, reaction time 4 h
  Conversion rate: 46.5%
[3]; CPMK 100 mM, reaction time 6 h
  Conversion rate: 58.7%
[3]; CPMK 100 mM, reaction time 8 h
  Conversion rate: 69.0%
[3]; CPMK 100 mM, reaction time 12 h
  Conversion rate: 99.7%
[3]; CPMK 100 mM, reaction time 24 h
  Conversion rate: 99.7%
[3]; CPMK 200 mM, reaction time 1 h
  Conversion rate: 20.9%
[3]; CPMK 200 mM, reaction time 2 h
  Conversion rate: 33.1%
[3]; CPMK 200 mM, reaction time 3 h
  Conversion rate: 48.1%
[3]; CPMK 200 mM, reaction time 4 h
  Conversion rate: 55.2%
[3]; CPMK 200 mM, reaction time 6 h
  Conversion rate: 77.4%
[3]; CPMK 200 mM, reaction time 8 h
  Conversion rate: 86.3%
[3]; CPMK 200 mM, reaction time 12 h
  Conversion rate: 92.2%
[3]; CPMK 200 mM, reaction time 24 h
  Conversion rate: 99.7%
[3]; CPMK 500 mM, reaction time 1 h
  Conversion rate: 10.8%
[3]; CPMK 500 mM, reaction time 2 h
  Conversion rate: 21.1%
[3]; CPMK 500 mM, reaction time 3 h
  Conversion rate: 38.7%
[3]; CPMK 500 mM, reaction time 4 h
  Conversion rate: 43.2%
[3]; CPMK 500 mM, reaction time 6 h
  Conversion rate: 62.1%
[3]; CPMK 500 mM, reaction time 8 h
  Conversion rate: 70.7%
[3]; CPMK 500 mM, reaction time 12 h
  Conversion rate: 89.9%
[3]; CPMK 500 mM, reaction time 24 h
  Conversion rate: 99.4%
[3]; CPMK concentration 200 mM
  time required to achieve a conversion rate close to 99.9%: 24 h
[2]; substrate drawing 2
  ee value of product: 11.9%
[2]; substrate drawing 3
  ee value of product: 99.4%
[2]; substrate drawing 5
  ee value of product: 9.22%
[2]; substrate drawing 6
  ee value of product: 45.7%
[2]; substrate drawing 7
  ee value of product: 51.3%
[2]; substrate drawing 8
  ee value of product: 95.1%
[2]; substrate drawing 9
  ee value of product: 77.5%
